Test results: the Human Domainome abundance scans (Beltran et al. 2025)
± gives the uncertainty stated by the source.

B1: Gamma-crystallin S, residues 96 to 176; numbered along this chain, P22914 (parent)
chain: IQIFEKGDFSGQMYETTEDCPSIMEQFHMREIHSCKVLEGVWIFYELPNYRGRQYLLDKKEYRKPIDWGAASPAVQSFRRI

Variants of: B1
Assay: abundance fitness (aPCA) (normalised: wild type 0, dead -1); higher = more abundant; growth selection in yeast, the domain comes from the species named
Details: Homo sapiens

Abundance fitness, by site and new letter:
G11: K 0.105 ± 0.081; S 0.06 ± 0.035; V -0.208 ± 0.04; Y -0.094 ± 0.097; E -0.01 ± 0.062; N -0.002 ± 0.14; D -0.009 ± 0.088; Q -0.003 ± 0.044; R -0.135 ± 0.032; M 0.062 ± 0.055; H -0.021 ± 0.074; W -0.171 ± 0.045; C 0.066 ± 0.057; A 0.041 ± 0.042; P 0.012 ± 0.057; L -0.137 ± 0.041; I -0.372 ± 0.17; F -0.294 ± 0.069
M13: I 0.062 ± 0.098; V -0.017 ± 0.047; E 0.028 ± 0.061; N -0.083 ± 0.11; S -0.023 ± 0.052; K -0.032 ± 0.064; C -0.012 ± 0.076; R -0.01 ± 0.028; A -0.011 ± 0.051; Y 0.094 ± 0.15; Q 0.019 ± 0.061; W -0.048 ± 0.05; G -0.041 ± 0.04; F -0.04 ± 0.14; D -0.032 ± 0.16; H 0.005 ± 0.099; P 0.027 ± 0.059; T 0.027 ± 0.064
E5: G -0.02 ± 0.039; M 0.028 ± 0.12; C -0.022 ± 0.064; L 0.013 ± 0.051; W 0.006 ± 0.072; I 0.014 ± 0.086; P -0.01 ± 0.065; K -0.007 ± 0.094; R -0.002 ± 0.047; V 0.051 ± 0.039; S -0.046 ± 0.04; Q 0.12 ± 0.092; T -0.07 ± 0.094; D -0.05 ± 0.062; H -0.041 ± 0.11; N -0.062 ± 0.13; F 0.057 ± 0.084; Y 0.083 ± 0.1
D19: G -0.035 ± 0.05; M -0.097 ± 0.091; F -0.116 ± 0.087; Y 0.009 ± 0.098; N -0.193 ± 0.17; E -0.018 ± 0.081; R -0.015 ± 0.068; H 0.143 ± 0.22; K -0.114 ± 0.16; L -0.124 ± 0.076; V -0.038 ± 0.04; A -0.005 ± 0.057; Q 0.181 ± 0.12; W -0.024 ± 0.072; T -0.059 ± 0.077; I -0.144 ± 0.087; P -0.237 ± 0.14; C -0.003 ± 0.086
E18: K 0.017 ± 0.14; F -0.007 ± 0.12; S 0.016 ± 0.054; M -0.066 ± 0.12; G 0.038 ± 0.039; R -0.028 ± 0.044; D -0.153 ± 0.16; Q 0.009 ± 0.11; I 0.079 ± 0.15; W 0.014 ± 0.074; L -0.021 ± 0.064; N 0.072 ± 0.13; A -0.087 ± 0.061; P -0.067 ± 0.087; Y -0.032 ± 0.13; T -0.046 ± 0.085; H -0.039 ± 0.27; C 0.006 ± 0.17; V 0.002 ± 0.049
Q12: C -0.093 ± 0.056; R 0.025 ± 0.047; L -0.014 ± 0.047; A -0.02 ± 0.036; H -0.04 ± 0.12; G 0.033 ± 0.032; S 0.023 ± 0.052; D 0.012 ± 0.089; Y 0.035 ± 0.13; M 0.001 ± 0.071; N 0.09 ± 0.095; E -0.053 ± 0.059; T 0.053 ± 0.084; P 0.013 ± 0.059; F -0.053 ± 0.084; V 0.005 ± 0.039
F4: D -0.971 ± 0.2; W -0.067 ± 0.056; T -0.585 ± 0.094; G -0.414 ± 0.042; V -0.906 ± 0.082; S -0.113 ± 0.031; Y -0.094 ± 0.096; C -0.008 ± 0.079; I -0.987 ± 0.14; K -0.193 ± 0.19; M -0.045 ± 0.064; R -0.945 ± 0.11; H -0.017 ± 0.095; E -1.16 ± 0.23; P -0.967 ± 0.18; Q -0.868 ± 0.14; N -0.231 ± 0.11
S22: C 0.02 ± 0.12; Y 0.142 ± 0.3; T -0.08 ± 0.066; F -0.035 ± 0.12; Q -0.019 ± 0.11; R -0.016 ± 0.044; M -0.094 ± 0.078; K 0.062 ± 0.099; V 0.017 ± 0.051; W 0.082 ± 0.1; E -0.034 ± 0.083; I 0.033 ± 0.12; L -0.022 ± 0.066; H -0.01 ± 0.077; P -0.907 ± 0.2; N 0.001 ± 0.11; A 0.023 ± 0.054; G -0.015 ± 0.037
P21: A -0.043 ± 0.058; Q 0.023 ± 0.11; I -0.053 ± 0.12; F 0.075 ± 0.083; V 0.009 ± 0.042; C -0.011 ± 0.081; R -0.106 ± 0.045; D -0.063 ± 0.08; K -0.016 ± 0.084; T -0.012 ± 0.074; S 0.019 ± 0.081; E -0.028 ± 0.059; M -0.057 ± 0.071; N -0.015 ± 0.12; Y -0.109 ± 0.11; W 0.037 ± 0.062; L -0.002 ± 0.048; G 0.004 ± 0.04
E15: G -0.044 ± 0.059; W -0.062 ± 0.13; T -0.064 ± 0.11; K 0.147 ± 0.12; V -0.013 ± 0.061; H -0.095 ± 0.14; P -0.038 ± 0.098; L -0.078 ± 0.078; I -0.183 ± 0.15; A -0.011 ± 0.062; Q 0.018 ± 0.11; F -0.05 ± 0.099; D -0.046 ± 0.099; C -0.137 ± 0.098; M -0.18 ± 0.1; Y 0.115 ± 0.12; R -0.057 ± 0.053
F9: E -0.18 ± 0.049; C 0.054 ± 0.056; D -0.409 ± 0.061; S -0.068 ± 0.042; I -0.009 ± 0.083; W -0.018 ± 0.053; Y -0.008 ± 0.092; M 0.061 ± 0.068; P -0.481 ± 0.052; G -0.035 ± 0.03; K -0.095 ± 0.072; H 0.067 ± 0.09; T -0.051 ± 0.057; Q 0.027 ± 0.071; R -0.126 ± 0.037; A -0.064 ± 0.035; V -0.12 ± 0.036; N 0.068 ± 0.082
T16: W 0.078 ± 0.091; M 0.061 ± 0.13; G 0.006 ± 0.054; E 0.046 ± 0.054; D -0.002 ± 0.13; L 0.049 ± 0.056; H -0.003 ± 0.16; V -0.035 ± 0.057; K -0.129 ± 0.15; I -0.055 ± 0.092; Y 0.018 ± 0.085; A 0.026 ± 0.061; F 0.148 ± 0.15; C 0.012 ± 0.093; R 0.003 ± 0.057; P 0.102 ± 0.071; Q -0.108 ± 0.13; N 0.024 ± 0.13
T17: R -0.012 ± 0.05; C 0.027 ± 0.12; Q -0.005 ± 0.082; L 0.022 ± 0.056; Y -0.352 ± 0.17; W 0.021 ± 0.079; V -0.031 ± 0.049; I 0.037 ± 0.12; D -0.051 ± 0.1; E -0.069 ± 0.11; M -0.059 ± 0.09; A 0.022 ± 0.053; S -0.068 ± 0.062; G -0.013 ± 0.049; N -0.02 ± 0.18; F -0.007 ± 0.1; K 0.074 ± 0.13; P 0.075 ± 0.071
C20: Y -0.035 ± 0.1; R -0.235 ± 0.049; H -0.398 ± 0.19; F -0.222 ± 0.077; W -0.065 ± 0.077; P -1.04 ± 0.16; I 0.023 ± 0.15; M -0.008 ± 0.081; G -0.352 ± 0.053; K -0.027 ± 0.072; S -0.054 ± 0.052; N -0.134 ± 0.11; A -0.004 ± 0.057; D -0.754 ± 0.24; T -0.086 ± 0.056; V -0.087 ± 0.06; Q -0.002 ± 0.09; L -0.142 ± 0.051; E -0.144 ± 0.072
S10: M -0.033 ± 0.068; L 0.005 ± 0.041; K 0.006 ± 0.08; D -0.12 ± 0.1; E 0.013 ± 0.064; V -0.003 ± 0.045; T -0.157 ± 0.061; N 0.069 ± 0.1; Y 0.068 ± 0.089; W -0.047 ± 0.051; F -0.091 ± 0.088; I -0.059 ± 0.091; Q 0.022 ± 0.069; A -0.039 ± 0.052; C -0.081 ± 0.088; P -0.733 ± 0.097; G -0.004 ± 0.038; R -0.018 ± 0.038
G7: W -0.041 ± 0.049; I 0.034 ± 0.14; F 0.084 ± 0.12; S -0.01 ± 0.054; Y -0.025 ± 0.086; H 0.013 ± 0.076; D -0.019 ± 0.091; C -0.367 ± 0.086; K 0.079 ± 0.055; R 0.052 ± 0.033; M 0.012 ± 0.07; Q -0.099 ± 0.064; A 0.043 ± 0.043; V -0.012 ± 0.043; E -0.027 ± 0.061; P 0.007 ± 0.066; T -0.03 ± 0.042; N -0.16 ± 0.13
D8: N 0.074 ± 0.087; L 0.074 ± 0.038; I 0.025 ± 0.084; S 0.093 ± 0.039; F 0.066 ± 0.1; Y 0.078 ± 0.063; P -0.012 ± 0.062; T 0.063 ± 0.052; H 0.088 ± 0.083; R 0.081 ± 0.035; V 0.039 ± 0.036; K 0.162 ± 0.085; A 0.038 ± 0.047; C 0.111 ± 0.092
Y14: S 0.07 ± 0.061; V -0.002 ± 0.072; P -0.993 ± 0.22; K -0.009 ± 0.13; D -0.01 ± 0.095; W -0.056 ± 0.15; M -0.166 ± 0.11; T 0.086 ± 0.078; C -0.027 ± 0.077; G 0.028 ± 0.056; A 0.049 ± 0.077; F -0.011 ± 0.083; Q 0.128 ± 0.097; E 0.113 ± 0.2; R -0.004 ± 0.056; I -0.003 ± 0.08; H 0.034 ± 0.17; N 0.063 ± 0.081
K6: P -1.1 ± 0.21; A 0.007 ± 0.066; Q -0.056 ± 0.074; S 0.085 ± 0.06; V 0.033 ± 0.062; T 0.007 ± 0.095; R -0.047 ± 0.048; M 0.049 ± 0.087; L -0.058 ± 0.067; D 0.015 ± 0.085; I -0.009 ± 0.1; Y -0.033 ± 0.096; E 0 ± 0.08; G 0.004 ± 0.044; H -0.02 ± 0.15; F 0.099 ± 0.13
